# Measurements from article PMC9092470, “Understanding p300-transcription factor interactions using sequence variation and hybridization†” (RSC Chemical Biology, 2022).
# How the values were obtained:
# [1] = target: T1, HIF-1α786-826/p300 complex (Homo sapiens, UniProt Q09472); experiment: Competition ITC: CITED2 peptide titrated to preformed p300/HIF-1α786–826 complex; type: binding; settings: titrated to HIF-1α786-826/p300 complex, fitted with fixed KD = 42.9 nM and ΔH = -25.8 kcal/mol for HIF-1α786-826, read-out: KD,app CITED2
# T1 construct: GST (N, cleaved yes); made in house; host or cells: p300: E. coli BL21 pLysS (pGEX-4T1-p300); HIF-1α peptide: chemical synthesis
# T1 sequence (Q09472 330-420, one chain of several): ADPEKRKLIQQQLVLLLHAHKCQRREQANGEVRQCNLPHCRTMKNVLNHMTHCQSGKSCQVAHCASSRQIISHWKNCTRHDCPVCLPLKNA
# Experimental: Figure S7Apparent KD fits for the competition ITC experiment using a competition interaction model. p300/ligand complexes were prepared by titrating the appropriate ligand first to p300 in the cell using 3-5 µM protein concentration, the titration stopped when it reached close to […]
# (Table S5) Then it was titrated with the competitor ligand using 30-60 µM concentration in the syringe, 5 or 10 uL injections with 180-240 s spacing. Background titrations were performed without p300 in the cell and subtracted from the measurements. Apparent KD,app and ΔH app values data were fitted to a competition model (Fig. S17) in SEDPHAT. Error bars represent the estimated integration errors.
# (1 picture or pasted object on this page, not shown here) […]
# instrument using 3-5 µM protein in the cell and 40-60 µM ligand in the syringe at 35°C, using 5 µl injections and 180 s spacing between injections, for 40 injections. […] Data were analysed using NITPIC3 and fitted using SEDPHAT4 to a single binding site model (fixed 1:1 stoichiometry), with baseline and incompetent protein fraction as adjustable parameters. 68 % confidence intervals for the fitted values were determined using the automatic confidence interval search implemented in SEDPHAT. […]
# [2] = target: GST-tagged p300 CH1 domain (residues 330–420) (UniProt Q09472); experiment: SEC; size exclusion chromatography of the GST fusion (protein characterization, Fig. S15)
# [3] = target: T2, p300 CH1 domain (residues 330–420) (UniProt Q09472 330-420); experiment: ITC; competition: CITED2 peptides titrated into the preformed p300/HIF-1α 776–826 complex (1.2–1.6 equivalents of HIF-1α); 40 mM sodium phosphate, pH 7.5, 100 mM NaCl, 1 mM DTT, 35 °C; competitive binding model; apparent; settings: both partners purified
# T2 construct: p300 CH1 domain, residues 330–420; The cleavage of GST is said for the anisotropy control; also called p300 with the GST tag cleaved; source: recombinantly expressed as a fusion protein with GST, GST tag cleaved
# T2 sequence (Q09472 330-420): as the sequence (Q09472 330-420, one chain of several) above
# [4] = target: T2, p300 CH1 domain (residues 330–420); experiment: ITC; peptide in the syringe, p300 in the cell (Fig. 4: 5 μM protein, 60 μM ligand); 40 mM sodium phosphate, pH 7.5, 100 mM NaCl, 1 mM DTT, 35 °C; single-site model, fixed 1:1 stoichiometry; settings: both partners purified
# [5] = target: T3, GST-p300 (GST-tagged p300 CH1 domain, residues 330-420) (human, UniProt Q09472 330-420); experiment: fluorescence polarisation; fluorescence anisotropy competition; 5 nM FAM-HIF786-826 as tracer, two-fold dilution series of the competitor from 10 µM over 24 points; 25 mM Tris-HCl, 150 mM NaCl, 1 mM DTT, pH 7.4; concentration of p300 not stated; settings: both partners purified
# T3 construct: human p300, CH1 domain (zinc finger, TAZ type 1), residues 330-420; For the fluorescence anisotropy experiments the GST cleavage step was omitted (D1:p17); source: E. coli (pGEX-6P-2 in Rosetta 2 or pGEX-4T-1 in BL21 pLysS), glutathione beads, eluted with glutathione, SEC
# T3 sequence (Q09472 330-420): as the sequence (Q09472 330-420, one chain of several) above
molecule,measurement,setting,value
Ac-DEEVLMSLVIEMGLDRIKELPELWLGQNEFDFMTDF-NH2 [CITED2_224–259],Kd,[1],8.4 nM
GST-tagged p300 CH1 domain (residues 330–420) (from UniProt Q09472 330-420) (domain or fragment),stoichiometry N,[2],2
"NVIDTDFIDEEVLMSLVIEMGLDRIKELPELWL (peptide, UniProt Q99967 216-248, looked up) [CITED2 216–248 (C-terminally truncated CITED2)]","KD,app (competition against the preformed p300/HIF-1α 776–826 complex)",[3],46.9 nM
same,Kd,[4],303 nM
"GPGSSMDESGLPQLTSYDCEVNAPIQGSRNLLQGEELLRALDQVN (four residues (Gly-Pro-Gly-Ser) left from the PreScission protease site; source: E. coli Rosetta 2, from inclusion bodies, His-trap, on-column PreScission cleavage, RP-HPLC; not shown: GFP, N-terminal, cleaved) [HIF-1α786-826 (expressed, His10-GFP cleaved off)]",IC50,[5],59 ± 6 nM
